The DeepSol protein solubility set

Experiment: soluble on expression in E. coli; label from the status in PepcDB or PDB records

Soluble on expression in E. coli, not soluble:
MGSDKIHHHHHHMIALKELKQYADLHVKTHSFQVINPRQVLQSIERAASEEPTAGGWDWQWVDAANKCLQANAIEDAIQCYNFARFPFPKTSLQQEAADRLTKVFEQAYCREDVQKHRVYYDNQKVTVYAANLHPDLPCLLVLGGIVSIKEQWSVFLQVGKRLGFSVLITECPGVGENQVRYHADSYRMIGQILDTFAGQAKVGDTYIVGMSFGGHLAMKQALHDERIKGITTVGAPLHYFFQDYSQLNVPFITQATLAHVMEEELDHVGRALSRFAFMPKELNKLKIPITYIFSSKDEIIPKSEKSFLLDNIANLTFYEFDDVHGSPNHLPLIQKIIPLSILKHSNSKRYFVRIMLAFLLTYNKWKGRDGKR
MGSDKIHHHHHHMIDKLEFFIALARAQHFGRAAEECGISQPTLSAAIRQLEDQLGVILVQRGSRFQGLTPEGQRVLEWARRIVGDARTMREEMRAARNGLAGHIRLAVIPTALAMVQRLTEPFQAHHPAVTFQVVSRNSLQVLSLLENLEIDAGITYLDNEPLGRVTSVPLYAERYHLIAATGTPLADRESVTWREVSDLRLCLLTADMQNRRIINQHFTEAGVVPRPTLESNSMIVLFSHIRTGQWSSIMPRNVAESFGFPEEIRMVPIVEPQAQHLVGLVATHREPYTPLVSALLHEARRLAAAQVFDRFFLSRNNTAVLT
MGSDKIHHHHHHMIDLDFRKLTIEECLKLSEEEREKLPQLSLETIKRLDPHVKAFISVRENVSVEKKGKFWGIPVAIKDNILTLGMRTTCASRILENYESVFDATVVKKMKEAGFVVVGKANLDEFAMGSSTERSAFFPTRNPWDLERVPGGSSGGSAAAVSAGMVVAALGSDTGGSVRQPASLCGVVGYKPTYGLVSRYGLVAFASSLDQIGPITKTVRDAAILMEIISGRDENDATTVNRKVDFLSEIEEGVSGMKFAVPEEIYEHDIEEGVSERFEEALKLLERLGAKVERVKIPHIKYSVATYYVIAPAEASSNLARFDGVKYGLRIKEKGLREMYMKTRNVGFGEEVRRRIMIGTFTLSAAYYEAYFNKAMKVRRKISDELNEVLSQYDAILTPTSPVTAFKIGEIKDPLTYYLMDIFTIPANLAGLPAISVPFGFSNNLPVGVQVIGRRFADGKVFRIARAIEKNSPYNENGMFPLPEVKA
MGSDKIHHHHHHMIDLKRNSKKIPIEATGLRSRKSSLYEPNQKEDFKISRGRFSNFLTCQRCFYLDRVRGLDPPGTPGWTLNETTDLLLKKEFDYCRQKQIPHRIFASNGLSHVVPFDHPEIDNWRNSLNRGLMHRYKDTGIILTGGVDDIWQDTITEQLIIVDYKSQAKNGRVDKKDYLDDPFHEAYKIQMDFYAYLLSGMGFSVHPTSYFLVCNAKRDEDEFNKTMRFDEYLVPYKWNNDWIESRLDEMVALMNQLEVPESNHSCKNCAYADQYSKIIFSGNTSQKEITQGTLPLF
MGSDKIHHHHHHMIDQLYRKAVLTVAERPQVEQLARQKMWNLAERFVAGESIESAIQAVQALERDGIAGNLDLLGEFIDSPAKCTEFADDVIKLIEAAHAAGIKPYVSIKLSSVGQGKDENGEDLGLTNARRIIAKAKEYGGFICLDMEDHTRVDVTLEQFRTLVGEFGAEHVGTVLQSYLYRSLGDRASLDDLRPNIRMVKGAYLEPATVAYPDKADVDQNYRRLVFQHLKAGNYTNVATHDERIIDDVKRFVLAHGIGKDAFEFQMLYGIRRDLQKQLAAEGYRVRVYLPYGRDWYAYFSRRIAETPRNAAFVVQGMLKG
MGSDKIHHHHHHMIEFAAITSVISKYAPQASQLIIKQAQKNEAVINILHELKLNPTQISDDIDTVYIYALIRYGVFKHEAILNLFREKEIKGCFWDAYSSNTPFKFVENAKKLLNQNSELKMQLINAKINFLAEIEEFGEAFIAVAKQTKSSKYQPYPDWNLDVYSKEFKALIFEKTRLFCGRDFVFKAIQKFFTTQAKGYFSIVGDAGMGKSAIAAKYVLAYKFPCYFNIFAEGRNKPEKFLASIRQQLIKRYSLQNADNTDLRTLLQKASEELKGQKLVIVVDALDEVEQEGNGNLLDLPQNLPNGVYFLLTRRLYNQETKRLTLSPDTPVYELDLTQGDYTALSQEDVKEYIELYLNNDSDLKNWINERHISEDSFTQEIAVKSENNFIYLRYLLPGISEGKYNDLNLKGLPQGLQDYYTTHWNRMGMDKESNEKKVKILYILVERGEPISINMITEILDEEEYEVKSVLNEWVEYVTPKVNVDEHKTYYSIYHRSFLEFLKSQDKLGKGRKLFREVNKSMANYMLKEMA
MGSDKIHHHHHHMIERIYLAKPRGFCAGVVMAIQAVEKAAVREDKPVTVYHSIVHNHTVVERLSEGGRVHFVEDLDAVDALPDSGDTVIFSAHGISPAVRERARSLGLSTIDATCPLVTKVHTEAKKYAREGYTILLIGDSAGHQEVIGTRGEAPENTILVGVLGKTGPGLNDPHAVQVPDPERLVVLTQTTLSVDDTRKTVDILKARFPALVVPPSEDLCYATKNRQDAVKNIAPNVDAFLVLTSTHSSNGMRLLELAEAECGRAYRLETAADLTRLEQNGDLGGVRSVGITSAASTPDDLVQDVVAHFRALNPALEVIEEGEWENIEFREPKKIAPTQELPRTMQ
MGSDKIHHHHHHMIESIQELLQKEAQAVLNIPVTDAYEKAVELIVEQIHRKKGKLVTSGMGKAGQIAMNIATTFCSTGIPSVFLHPSEAQHGDLGILQENDLLLLISNSGKTREIVELTQLAHNLNPGLKFIVITGNPDSPLASESDVCLSTGHPAEVCTLGMTPTTSTTVMTVIGDILVVQTMKRTEFTIEEYSKRHHGGYLGEKSRKLCVK
MGSDKIHHHHHHMIFFNKDEQLENIGNGILDATWAAFPTLARNQIALTWVVYDPPVRVNTGGALTPNAFWDHPVRGFTYRGVERIYPASVVKLFYLVAVNEWLEKGMSQTSKELERALRDMIVDSSNDATSLVVDILSGTTSGPELPTGPFETWKYQRNIVNRYYQSLGWEEMETINVCQKTWGDGPYGRERAFAGELLENRNMLTTNAIARLLHSIVGGVAVSSARSQAMMALLKRPLNDLPTDTEENQVTGFLGGGLPQNAQIWSKAGWTSQVRHDAAYIELPEQRPYLLVVFTEGKAQAKSQAILPFVSQQVADAISSL
MGSDKIHHHHHHMIFLNRYGFPDQSATSRMISSLAMSMAQRGMNVTVVTSREIHNHPGSVLPATETVRGIHIQRLSSGRFGRHNLMRRSIDYLLFQVLAFAWLLRNVRATDTVIVCTDPPLLSVMSSIAIRLKGALMVNWIMDLFPETAIELGFFRKRARWLAPWLTRARNWSLRSPGMVVCPTEKMAEFLFTQGIAKDRVSVLHHWSDGEEIYPVLPEGNSLRKAWGLQDVFVVGYSGNFGRAHDFGTMLAAAKRLEHRPDIRFLLIGGGHQHAAVKTVVQDLGLQNVIFKPLQPVENLAESLSVADVHLVSLLPELEHCIIPSKFYGIMAAGRPTIFIGDPDGEVPRILRAKRCGSNVEIGETDKLTGIIEELCDDPDTTKAMGDAARRLLCTDYSREKAADAWAALIAGLQTVEPSRPHLAQGISP
MGSDKIHHHHHHMIHLSNITKQHGAQVLFRDASFQILPGTRTGLVGPNGAGKTTIFRIITGEEEVDAGEMTCAKKTTVGYFSQDVGEMAGRSALEEVMAGSAETVRLAAELKEMEAAMCEPQSDDEMAALLERYGAAQEEFEHRGGYDLDTRAQTVLTGLGIGPDRFHHPVESFSGGWKMRIALAKILTLKPDVLLLDEPTNHLDVESIIWLEEWLANDFDGALLMTSHDRDFMNRIVTRIIEVANRTVTTYGGNYDFYERERDIRREQLLASHKRQQEMLAKEEEFIARFAARASHAAQVQSRVKKLEKIERIEIPAEERMVRFEFSEPPRSGEDVVVMENLGKVWQTPDGGEKPVFGGVSGIIRRLNKIAVVGVNGAGKSTFLKVLAGQTEPTTGTVTIGANVELGYFSQHAMEVLDPKKTVFETVQEAMPLANIGVIRNLLAAFLFQGDTVDKRVENLSGGEKSRVVLATLLARPVNFLVLDEPTNHLDIRSREILLDALRNFAGTVVIVSHDRHFLRSLVDRVFEVDHGEMRVYEGDYSYYLRKSHELHGLP
MGSDKIHHHHHHMIIELFGPPGAGKTTLLRGLCQGMAKHGINVKTVNGYRLIEYGSAQEDGPEVRHGIGRIGKKIATSGPVLLSTLPKDGVAARLLASIPLRSLTWSWRMKVDIALLCESWRQAQESEGYFIFEEGIIQALCALVVLARTPSIDVVRDCLAFLPRPDLLIQLDAPQETLRRRLMDRHAQQPLLEVLLFELGVDRGLRQADISRDIGKCLRQDGWPLIKVNGAEPHDLDKIITRILEEHETVPV
MGSDKIHHHHHHMIIESRIEKGKPVVGMETTVFVHGLPRKEAIELFRRAKEISREKGFQLAVIGILKGKIVAGMSEEELEAMMREGADKVGTREIPIVVAEGKNAATTVSATIFLSRRIGIEVVVTGGTGGVHPGRVDVSQDLTEMSSSRAVLVSSGIKSILDVEATFEMLETLEIPLVGFRTNEFPLFFSRKSGRRVPRIENVEEVLKIYESMKEMELEKTLMVLNPVPEEYEIPHDEIERLLEKIELEVEGKEVTPFLLKKLVEMTNGRTLKANLALLEENVKLAGEIAVKLKRS
MGSDKIHHHHHHMIINRSCLKEFAEKVHFLPSSLTKSDLLTDPFRLHQENELGIYYSPHNEFINRDASLVIAGITPGFSQMKTAYETAAESLLQGGTLEQMAVDTKIAAGFSGSMRHNLITMLDLCGLPQAFGIQSAAKLFGELRHMLHTTSVIKYPVFIQQKNYTGYKPAITHSPILSTYAFGHFPAELNHVTGPALLIPLGKAAETVCETLIRQHSLQNLICLNGFPHPSGANGHRLKQFSKNKEQLERQIRSFAALVDFAIEKRK
MGSDKIHHHHHHMIISASRRTDIPAFYSQWFFNRIKEGYVLVPNPFNPKMISKVSLHPAVIDCIVFWTKNPAPMIDKLDHLQDYKYYFQFTLNPYGEKLENNLPSVNKRIDIFKRLSDKIGKEKVIWRYDPILTNEEYDVSFHKEAFAQIAYGLKDHTEKCMLGFIDHYQHIRTAVGQFNIQPLRKEEIEEIAVSFRNTINEYPAIQLDTCTSKVDLRHLGIPAGLCIDKELIERITGYPLLAKKDKNQRNVCNCIESIDIGTYESCLNGCIYCYAIKGNYNSVEYNTKKHDRNSPLLIGHPAEDDVVKEREMKSLRNNQYSLF
MGSDKIHHHHHHMIITTALANEIVARAMAIIHHNVNVIDHHGQIIASGERHRIGEQHEVAREVIRTGKRICINNAAEAARFHNVHPGINHPIIYDDRVVMVVGISGDPAAISRYAELAVLTAELLVRQAIEMRETNWRQRLRDTLFCQYLEQGATPAGQEALHRLLELGFDFDTPRVPIVVTVQVEQHQLSDILSTLLREFSQLSGVSDVILLGSHEILILNALSEAQETLLRGIEFVLSNQISHYHIGIGVQADSAPDIREAIRFARSVIEVGSKVQPQRQIYYFREMAMLCLFRVLEDSYMVNFFINNVRQLLEHDSGEVLLDTLSSFIANNAEPGKTSLLLGIHRNTLTYRLQQIKKHIQLDPMVFTDLTQLAVSVHCYRRLNPRQSEWIDSLS
MGSDKIHHHHHHMIKNAVKKIIDMEWFARMMEVLDHRSDNRMTELGMLSQAFEFIKINEVCGDYLEFGLWRGKTFGYAHRMKHRYRRQDMKLWGFDSFQGLPDTGAHPDNIWYKGQFACSRPEFESILKSRGIRSCEYELVEGFYRESLNDATRRRLAGRKAAIVYIDCDLYDSTVEVLDFIQPYLVNGSIVCFDDFYNYKADPEQGEQKALSDFLRKESGICFIPYMAYAPLGKSFICRRT
